Data taken from patent US20230340151A1 (Pfizer, published 2023).

What was measured:
Experiment in all cases: flow cytometry on cells displaying the construct
[1] = biological target: T1, CID1875 (human-chicken GUCY2c chimera) (human/chicken)
T1 chain: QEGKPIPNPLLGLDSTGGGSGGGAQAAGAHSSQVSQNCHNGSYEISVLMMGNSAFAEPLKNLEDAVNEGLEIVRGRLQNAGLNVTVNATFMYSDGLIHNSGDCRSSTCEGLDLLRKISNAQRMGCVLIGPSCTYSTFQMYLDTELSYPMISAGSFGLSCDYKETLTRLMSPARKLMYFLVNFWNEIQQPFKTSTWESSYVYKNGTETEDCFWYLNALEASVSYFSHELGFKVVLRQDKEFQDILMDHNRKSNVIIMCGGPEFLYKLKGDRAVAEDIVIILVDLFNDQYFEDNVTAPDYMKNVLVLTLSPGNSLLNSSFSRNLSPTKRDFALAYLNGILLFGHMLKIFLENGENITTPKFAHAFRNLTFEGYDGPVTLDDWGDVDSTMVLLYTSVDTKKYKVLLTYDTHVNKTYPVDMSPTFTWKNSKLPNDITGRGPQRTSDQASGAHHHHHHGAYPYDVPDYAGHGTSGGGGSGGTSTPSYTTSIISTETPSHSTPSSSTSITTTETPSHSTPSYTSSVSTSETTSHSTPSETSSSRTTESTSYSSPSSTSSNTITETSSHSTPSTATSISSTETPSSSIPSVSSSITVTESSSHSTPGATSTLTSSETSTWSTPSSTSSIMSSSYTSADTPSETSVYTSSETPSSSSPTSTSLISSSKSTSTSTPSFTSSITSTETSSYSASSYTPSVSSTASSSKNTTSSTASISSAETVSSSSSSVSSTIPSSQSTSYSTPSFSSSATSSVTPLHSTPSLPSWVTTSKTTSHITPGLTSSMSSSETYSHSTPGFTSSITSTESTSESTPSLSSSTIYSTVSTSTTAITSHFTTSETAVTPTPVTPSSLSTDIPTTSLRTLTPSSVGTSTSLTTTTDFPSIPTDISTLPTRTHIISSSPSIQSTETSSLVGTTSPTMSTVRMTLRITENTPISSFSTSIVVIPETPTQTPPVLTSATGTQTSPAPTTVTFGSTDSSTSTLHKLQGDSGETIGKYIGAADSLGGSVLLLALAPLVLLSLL

[2] = biological target: T2, CID1880 (human-chicken GUCY2c chimera) (human/chicken)
T2 chain: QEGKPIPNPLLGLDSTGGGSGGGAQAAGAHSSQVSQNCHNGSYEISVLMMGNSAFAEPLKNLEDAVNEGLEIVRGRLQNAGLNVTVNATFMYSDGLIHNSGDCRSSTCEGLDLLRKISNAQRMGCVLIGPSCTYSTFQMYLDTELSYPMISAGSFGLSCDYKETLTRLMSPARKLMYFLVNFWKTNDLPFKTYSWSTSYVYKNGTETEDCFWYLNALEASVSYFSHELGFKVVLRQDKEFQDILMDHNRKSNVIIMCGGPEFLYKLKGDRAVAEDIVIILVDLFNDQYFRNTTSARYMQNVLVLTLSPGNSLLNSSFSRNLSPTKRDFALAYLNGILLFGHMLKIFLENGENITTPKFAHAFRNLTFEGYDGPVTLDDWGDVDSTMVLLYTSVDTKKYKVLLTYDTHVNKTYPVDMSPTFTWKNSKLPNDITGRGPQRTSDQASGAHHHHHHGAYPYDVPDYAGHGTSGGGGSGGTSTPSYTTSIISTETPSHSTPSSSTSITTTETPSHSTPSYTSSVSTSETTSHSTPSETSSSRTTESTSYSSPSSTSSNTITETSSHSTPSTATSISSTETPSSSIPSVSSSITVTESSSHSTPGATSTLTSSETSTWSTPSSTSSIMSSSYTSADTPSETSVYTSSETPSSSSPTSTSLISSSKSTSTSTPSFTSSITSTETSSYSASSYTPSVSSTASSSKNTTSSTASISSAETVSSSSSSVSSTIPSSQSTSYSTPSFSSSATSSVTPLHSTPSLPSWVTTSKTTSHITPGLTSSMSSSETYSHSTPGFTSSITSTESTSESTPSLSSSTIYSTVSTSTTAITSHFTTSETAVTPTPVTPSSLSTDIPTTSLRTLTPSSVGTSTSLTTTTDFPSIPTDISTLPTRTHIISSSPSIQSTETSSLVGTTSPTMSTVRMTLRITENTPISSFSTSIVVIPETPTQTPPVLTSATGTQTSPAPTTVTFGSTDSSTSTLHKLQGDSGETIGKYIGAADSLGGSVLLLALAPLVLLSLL

[3] = biological target: T3, CID1940 (reverse chimera, chicken GUCY2c with human residues) (chicken/human)
T3 chain: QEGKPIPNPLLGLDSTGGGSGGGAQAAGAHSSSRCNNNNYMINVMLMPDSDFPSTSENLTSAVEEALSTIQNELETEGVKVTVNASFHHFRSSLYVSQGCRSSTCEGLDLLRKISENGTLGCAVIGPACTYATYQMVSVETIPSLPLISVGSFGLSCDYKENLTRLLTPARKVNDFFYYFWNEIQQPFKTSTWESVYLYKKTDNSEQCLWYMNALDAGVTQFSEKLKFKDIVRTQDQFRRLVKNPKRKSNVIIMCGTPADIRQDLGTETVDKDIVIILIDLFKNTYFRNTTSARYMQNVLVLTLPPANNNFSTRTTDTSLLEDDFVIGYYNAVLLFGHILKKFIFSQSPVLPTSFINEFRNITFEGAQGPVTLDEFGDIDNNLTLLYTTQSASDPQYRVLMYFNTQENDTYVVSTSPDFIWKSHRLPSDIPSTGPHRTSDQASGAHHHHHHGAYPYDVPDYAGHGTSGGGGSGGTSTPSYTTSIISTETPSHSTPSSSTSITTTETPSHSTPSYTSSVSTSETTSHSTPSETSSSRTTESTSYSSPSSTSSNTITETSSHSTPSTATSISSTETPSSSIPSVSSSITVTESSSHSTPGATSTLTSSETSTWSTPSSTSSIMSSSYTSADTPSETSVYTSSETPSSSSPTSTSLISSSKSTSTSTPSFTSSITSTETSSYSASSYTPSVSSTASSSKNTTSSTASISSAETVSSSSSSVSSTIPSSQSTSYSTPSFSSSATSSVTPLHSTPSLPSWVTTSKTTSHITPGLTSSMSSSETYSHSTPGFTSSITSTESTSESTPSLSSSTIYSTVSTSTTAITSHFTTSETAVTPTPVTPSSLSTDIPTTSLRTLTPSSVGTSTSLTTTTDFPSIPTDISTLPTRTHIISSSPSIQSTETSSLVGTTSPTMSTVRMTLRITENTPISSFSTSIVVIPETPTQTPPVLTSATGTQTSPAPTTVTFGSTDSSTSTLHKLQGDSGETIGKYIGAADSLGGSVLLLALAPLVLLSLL

[4] = biological target: CID1947 (human GUCY2c point mutant) (human)

Measured: binding result

B1: GUCY2C-1608 (bispecific antibody)
chain 1: DIQLTQSPSSLSASVGDRVTITCRASESVDYYGSSLLQWYQQKPGKAPKLLIYAASKLASGVPSRFSGSGSGTDFTLTISSLQPEDFATYYCQQTRKAYTFGQGTKLEIKGGGSGGGGEVQLVESGGGLVQPGGSLRLSCAASGFTFSDYYMTWVRQAPGKGLEWVAFIRNQARGYTSDHNPSVKGRFTISRDNAKNSLYLQMNSLRAEDTAVYYCARDRPSYYVLDYWGQGTTVTVSSGCPPCPAPEAAGAPSVFLFPPKPKDTLMISRTPEVTCVVVDVSHEDPEVKFNWYVDGVEVHNAKTKPREEQYNSTYRVVSVLTVLHQDWLNGKEYKCKVSNKALPAPIEKTISKAKGQPREPQVCTLPPSREEMTKNQVSLWCLVKGFYPSDIAVEWESNGQPENNYKTTPPVLDSDGSFFLYSKLTVDKSRWQQGNVFSCSVMHEALHNHYTQKSLSLSPG
chain 2: DIQMTQSPSSLSASVGDRVTITCTSSQSLFNVRSQKNYLAWYQQKPGKAPKLLIYWASTRESGVPSRFSGSGSGTDFTLTISSLQPEDFATYYCKQSYDLFTFGGGTKVEIKGGGGSGGGGEVQLVESGGGLVQPGGSLRLSCAASGFTFSSYWMHWVRQAPGKGLEWIGEIKPSNELTNVHEKFKDRFTISVDKAKNSAYLQMNSLRAEDTAVYYCTRTITTTEGYWFFDVWGQGTLVTVSSGCPPCPAPEAAGAPSVFLFPPKPKDTLMISRTPEVTCVVVDVSHEDPEVKFNWYVDGVEVHNAKTKPREEQYNSTYRVVSVLTVLHQDWLNGKEYKCKVSNKALPAPIEKTISKAKGQPREPQVYTLPPCREEMTKNQVSLSCAVKGFYPSDIAVEWESNGQPENNYKTTPPVLDSDGSFFLVSKLTVDKSRWQQGNVFSCSVMHEALHNHYTQKSLSLSPG
notes: also called GUCY2c CD3 bispecific
binds: all assays above
